# Patent publication US8398967B2, “Particle formulations for use in pharmaceutical compositions” (Intarcia Therapeutics, Inc., priority 2002, dated 2013)
# What was measured:
# Lipid moisture level = assay type: physicochemical; settings: after vacuum at room temperature for 48 hours
# Method: The moisture level of the lipid, e.g., DOPC, […], or DMPC, is measured after vacuum at room temperature for 48 hours. Lipid vehicles with lower moisture level can be included in viscous liquid compositions.
# [1] = ω-Interferon solubility in non-aqueous liquid solvents; assay type: physicochemical
# Excerpt: Thirteen non-aqueous liquid solvent candidates were identified to develop a solution formulation or a suspension formulation based on solubility of ω-interferon. The solvents at the top, e.g., lauryl lactate, are potential suspension solvents. The character of the solvents changes to potential solution solvents in combination with ω-interferon, e.g., glycerol formal, benzyl benzoate, DMSO, or glycerin.
# [2] = solvent 1:1 benzyl benzoate:benzyl alcohol, expected conc 10.00 mg/ml
# [3] = solvent NMP, expected conc 25.00 mg/ml
# [4] = solvent PEG 400, expected conc 25.00 mg/ml
# [5] = solvent benzyl alcohol, expected conc 10.00 mg/ml
# [6] = solvent ethanol, expected conc 25.00 mg/ml
# [7] = solvent ethyl hexyl lactate, expected conc 10.00 mg/ml
compound,measurement,setting,value
"CCCCCCCCCCCCCC(=O)OC[C@H](COP(=O)([O-])OCC[N+](C)(C)C)OC(=O)CCCCCCCCCCCCC [DMPC, dimyristoylphosphatidylcholine]",Avg. Moisture,Lipid moisture level,0.6%
"CCCCCCCC/C=C\CCCCCCCC(=O)OC[C@H](COP(=O)([O-])OCC[N+](C)(C)C)OC(=O)CCCCCCC/C=C\CCCCCCCC [DOPC, 1,2-Dioleoyl-sn-glycero-3-phosphatidylcholine]",Avg. Moisture,Lipid moisture level,0.6 ± 0.2%
ω-interferon,solubility,[1]; in the solvents that were combined with DOPC to form suspensions,less than 0.1 mg/mL
same,Concentration by SEC,[1]; [2],0.00 mg/mL
same,Concentration by UV,[1]; [2],<0.1 mg/mL
same,Concentration by rp-HPLC,[1]; [2],0.00
same,Concentration by SEC,[1]; [3],0.00 mg/mL
same,Concentration by UV,[1]; [3],<0.1 mg/mL
same,Concentration by rp-HPLC,[1]; [3],0.00
same,Concentration by SEC,[1]; [4],0.00 mg/mL
same,Concentration by UV,[1]; [4],<0.1 mg/mL
same,Concentration by rp-HPLC,[1]; [4],0.00
same,Concentration by SEC,[1]; [5],0.00 mg/mL
same,Concentration by UV,[1]; [5],0.14 mg/mL
same,Concentration by rp-HPLC,[1]; [5],0.00
same,Concentration by SEC,[1]; [6],0.00 mg/mL
same,Concentration by UV,[1]; [6],<0.1 mg/mL
same,Concentration by rp-HPLC,[1]; [6],0.00
same,Concentration by SEC,[1]; [7],0.00 mg/mL
same,Concentration by UV,[1]; [7],0.37 mg/mL
same,Concentration by rp-HPLC,[1]; [7],0.00
same,Concentration by UV,"[1]; solvent lauryl alcohol, expected conc 10.00 mg/ml",<0.1 mg/mL
same,Concentration by UV,"[1]; solvent lauryl lactate, expected conc 10.00 mg/ml",<0.1 mg/mL
